This is an account of results in publication PMC4167695, “Activation of c-Myc and Cyclin D1 by JCV T-Antigen and β-Catenin in Colon Cancer” (PLoS ONE, 2014).

This experiment addresses T1, β-catenin (human (endogenous in HCT116), UniProt P35222 1-781).
T1 sequence (looked up): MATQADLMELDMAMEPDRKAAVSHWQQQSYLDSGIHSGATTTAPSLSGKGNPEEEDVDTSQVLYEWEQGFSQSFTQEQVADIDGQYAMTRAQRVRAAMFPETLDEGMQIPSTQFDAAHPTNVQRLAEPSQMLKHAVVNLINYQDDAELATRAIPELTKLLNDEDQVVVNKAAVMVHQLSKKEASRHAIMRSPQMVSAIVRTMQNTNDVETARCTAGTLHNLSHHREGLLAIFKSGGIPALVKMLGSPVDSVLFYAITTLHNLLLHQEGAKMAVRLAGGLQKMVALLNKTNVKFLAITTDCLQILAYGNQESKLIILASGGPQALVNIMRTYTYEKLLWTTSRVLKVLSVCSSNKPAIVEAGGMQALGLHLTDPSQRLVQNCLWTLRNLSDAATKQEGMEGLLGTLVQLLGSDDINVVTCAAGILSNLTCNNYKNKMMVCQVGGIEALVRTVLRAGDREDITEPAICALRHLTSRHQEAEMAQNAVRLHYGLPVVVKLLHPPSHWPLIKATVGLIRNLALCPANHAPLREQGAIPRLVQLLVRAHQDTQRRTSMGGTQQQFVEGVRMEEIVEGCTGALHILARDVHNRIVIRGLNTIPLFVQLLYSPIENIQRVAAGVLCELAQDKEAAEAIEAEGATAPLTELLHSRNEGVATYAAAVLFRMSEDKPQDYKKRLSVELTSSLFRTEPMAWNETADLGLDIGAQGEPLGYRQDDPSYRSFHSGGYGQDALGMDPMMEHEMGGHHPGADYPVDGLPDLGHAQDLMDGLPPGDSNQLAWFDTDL
Put plainly: cell-based or functional assay.

B1: JCV T-Antigen (natural protein)
chain: MDKVLNREESMELMDLLGLDRSAWGNIPVMRKAYLKKCKELHPDKGGDEDKMKRMNFLYKKMEQGVKVAHQPDFGTWNSSEVPTYGTDEWESWWNTFNEKWDEDLFCHEEMFASDDENTGSQHSTPPKKKKKVEDPKDFPVDLHAFLSQAVFSNRTVASFAVYTTKEKAQILYKKLMEKYSVTFISRHGFGGHNILFFLTPHRHRVSAINNYCQKLCTFSFLICKGVNKEYLFYSALCRQPYAVVEESIQGGLKEHDFNPEEPEETKQVSWKLVTQYALETKCEDVFLLMGMYLDFQENPQQCKKCEKKDQPNHFNHHEKHYYNAQIFADSKNQKSICQQAVDTVAAKQRVDSIHMTREEMLVERFNFLLDKMDLIFGAHGNAVLEQYMAGVAWIHCLLPQMDTVIYDFLKCIVLNIPKKRYWLFKGPIDSGKTTLAAALLDLCGGKSLNVNMPLERLNFELGVGIDQFMVVFEDVKGTGAESRDLPSGHGISNLDCLRDYLDGSVKVNLERKHQNKRTQVFPPGIVTMNEYSVPRTLQARFVRQIDFRPKAYLRKSLSCSEYLLEKRILQSGMTLLLLLIWFRPVADFAAAIHERIVQWKERLDLEISMYTFSTMKANVGMGRPILDFPREEDSEAEDSGHGSSTESQSQCFSQVSEASGADTQENCTFHICKGFQCFKKPKTPPPK
B1: the “Cyclin D1 promoter luciferase activity in HCT116 cells co-transfected with T-Antigen and β-catenin, over empty vector controls” value is 11.7 fold; the “TOPflash (TCF-dependent luciferase reporter) activity in HCT116 cells co-transfected with T-Antigen and exogenous β-catenin, 24 hours post-transfection, normalized to FOPflash” value was 113 fold; the “c-Myc promoter luciferase activity in HCT116 cells co-transfected with T-Antigen and β-catenin, over empty vector controls” value stood at 6.1 fold.
